# From the nanobody polyreactivity screen of Harvey et al. (2022)
# Assay: yeast display, Sf9 membrane polyspecificity reagent, FACS + sequencing; frameworks hold sequencing errors
# How it was run: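 Galactose-induced (36–48 hours) yeast carrying a synthetic nanobody display library were exposed to 10% biotinylated, detergent-solubilized Sf9 membrane reagent at 4 °C for 1 hour. FACS followed streptavidin microbead enrichment, using low and high (top ~1%) gates for expression (anti-HA) and reagent binding (streptavidin). Colony PCR, MiSeq 2 × 250 sequencing and CDR-length filtering followed. Labels for polyreactivity reflect the gate of origin.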
row,Sequence,polyreactivity (PSR sort gate)
1,QVQLVESGGGLVQAGGSLRLSCAASGIIFYLYAMGWYRQAPGKERELVAAISRRGVSTYYADSVKGRFTISRDNAKNTVYLQMNSLKPEDTAVYYCAAAGFGYTGEEYWGQGTQVTVSS,high polyreactivity
2,QVQLVESGGGLVQAGGSLRLSCAASGIIFYLYTMGWYRQAPGKERELVAAISKSGARTYYADSVKGRFTISRDNAKNTVYLQMNSLKPEDTAVYYCAADVSVSGYYYWGQGTQVTVSS,high polyreactivity
3,QVQLVESGGGLVQAGGSLRLSCAASGIIFYLYVMGWYRQAPGKERELVAVISYSGDDTYYADSVKVRFTISRDNAKNTVYLQMNSLKPEDTAVYYCAADSIGYGFDYWGQGTQVTVSS,low polyreactivity
4,QVQLVESGGGLVQAGGSLRLSCAASGIIFYPYTMGWYRQAPGKERELVAAINSGGSTYYADSVKGRFTISRDNAKNTVYLQMNSLKPEDTAVYYCAAEANRYSSGYDYWGQGTQVTVTS,low polyreactivity
5,QVQLVESGGGLVQAGGSLRLSCAASGIIFYRNAMGWYRQAPGKERELVAAISSRGGNTYYADSVKGRFTISRDNEKNTVYLQMNSLKPEDTAVYYCARDSYSLSRTYDSWGQGTQVTVSS,high polyreactivity
6,QVQLVESGGGLVQAGGSLRLSCAASGIIFYRNTMGWYRQAPGKERELVAAITSGGTTYADSVKGRFTISRDNAKNTVYLQMNSLKPEDTAVYYCATDYWYRGFEYEYWGQGTQVTVSS,high polyreactivity
7,QVQLVESGGGLVQAGGSLRLSCAASGIIFYRNTMGWYRQAPGKEWELVAAIRRGGNTYYADSVKGRFTISRDNAKNTVYLQMNSLKPEDTAVYYCAASAGPRASYYYWGQGTQVTVSS,high polyreactivity
8,QVQLVESGGGLVQAGGSLRLSCAASGIIFYRSVMGWYRQAPGKERELVAAITSGGSTNYADSVKGRFTISRDNAKNTVYLQMNSLKPEDTAVYYCAAVPRYRRWKYDYWGQGTQVTVSS,high polyreactivity
9,QVQLVESGGGLVQAGGSLRLSCAASGIIFYRYAMGCYRQAPGKEREFVAAISWSGGSTTYADSVKGRFTISRDNAKNTVYLQMNSLKPEDTAVYYCNADRKYWSLWGPAYDYWGQGTQVTVSS,high polyreactivity
10,QVQLVESGGGLVQAGGSLRLSCAASGIIFYRYAMGWYRQAPGKERELVARITYNGGRTYYADSVKGRFTISRDNAKKTVYLQMNSLKPEDSAVYYCAARGHGGYYYWGQGTQVTVSS,high polyreactivity
11,QVQLVESGGGLVQAGGSLRLSCAASGIIFYSYVMGWYRQAPGKERELVAVISRSGGRTYYADSVKGRFTISRDNAKNTVYLQMISLKPEDTAVYYWAAALGVALNDYWGQGTQVTVSS,high polyreactivity
12,QVQLVESGGGLVQAGGSLRLSCAASGIIFYTYAMGWYRQAPGKEREFVAGIRWSGSSTYYADSVKGRFTISRDNAKNTVYLQMNSLKPEDTAVYYCATGQPYGPLYSLGYGYWGQGTQVTVSS,high polyreactivity
13,QVQLVESGGGLVQAGGSLRLSCAASGIIFYVYAMGWYRQAPGKERELVAAISSSGGSTNYADSVKGRFTISRDNAKNTVYLQMNSLKPEDTAVYFCAAKWRTRGHTSARGYWGQGTQVTVSS,high polyreactivity
14,QVQLVESGGGLVQAGGSLRLSCAASGIIFYWYAMGWYRQAPGKERELVAAINSGGRTNYADSVKGRFTISRDNAKNTVYLQMNSLKPEDTAVYYCAARANPYVLKYYYWGQGTQVTVSS,high polyreactivity
15,QVQLVESGGGLVQAGGSLRLSCAASGIIFYYNAMGWYREAPGKEREFVASISSRGGSTYYADSVKGRFTISRDNSKNTVYLQMNSVKPEDTAVYYCAAAFDWRRQRYNYWGQGTQVTVTS,high polyreactivity
16,QVQLVESGGGLVQAGGSLRLSCAASGIIFYYNGMGWYRQAPGKERELVAAISGDGSTNYADSVKGRFTISRDNAKNTVYLQMNSLKPEDTAVYYCNADDIFRPRDDLYDYWGQGTQVTVSS,low polyreactivity
17,QVQLVESGGGLVQAGGSLRLSCAASGIIFYYNTMGWYRQAPGKERELVAAISQRGGSTYYADSVKGRFTISRDNAKNTVYLQMNSLKPEDTAVYYCNKLRNSHGFRYDYWGQGTQVTVSS,high polyreactivity
18,QVQLVESGGGLVQAGGSLRLSCAASGIIFYYYAMGWYRQAPGKERELVAAINWTGGDTYYADSVKGRFTISRDNAKNTVYLQMNSLKPEDTAVYYCNADSFYSYIYDYWGQGTQVTVSS,low polyreactivity
19,QVQLVESGGGLVQAGGSLRLSCAASGIIFYYYAMGWYRQAPGKERELVAAISKSGGSTYYADSVKGRFTISRDNAKNTVYLQMNRLKPEDTAVYYCAARGPSWLSYNYWGQGTQVTVSS,high polyreactivity
20,QVQLVESGGGLVQAGGSLRLSCAASGIIFYYYAMGWYRQAPGKERELVAAISWSGGSTYYADSVKGRFTISRDNAKNTVYLQMNSLKPEDTAVYYCAADYTGHIYYYWGQGTQVTVSS,low polyreactivity
21,QVQLVESGGGLVQAGGSLRLSCAASGIIFYYYAMGWYRQAPGKERELVASISRSGTDTYYADSVKGRFTISRDTAKNTVYLQMNSLKPEDTAVYYCAARGYYRWAAYADWRFNYWGQGTQVTVSS,high polyreactivity
22,QVQLVESGGGLVQAGGSLRLSCAASGIIFYYYAMGWYRQAPGKESELVADITYSGGSTYYADSVKGRFTISRDKAKNTVYLQMNSLKPEDTAVYYCAARVTVSHWPYYYDSSDYGGQGTQVTVSS,low polyreactivity
23,QVQLVESGGGLVQAGGSLRLSCAASGIIFYYYTMGWYRQAPGKETELVASITWSGGGSTYYADSVKGRFTISRDNAKNTVYLQMNSLKPEDTAVYYCNADEYYSYDYWGQGTQVTVSS,low polyreactivity
24,QVQLVESGGGLVQAGGSLRLSCAASGIIFYYYVLGWYRQAPGKERELVAAISARGGSTTYADSVKGRFTISRDNAKNTVYLQMISLKPEDTAVYYCAADVSYWRHGYQLSYDYWGQVTQVTVSS,high polyreactivity
25,QVQLVESGGGLVQAGGSLRLSCAASGIIIAYYAMGWYRQAPGKERVLVATISSGGRTKYADSVKGRFTISRDNAKNTVYLQMNSLKPEDTAVYYCNTDRYFRRYYWYDYWGQGTQVTVSS,high polyreactivity
26,QVQLVESGGGLVQAGGSLRLSCAASGIIIDNYTMGWYRQAPGKEREFVAAINKSGGSTYADSVKGRFTISRDNAKNTVYLQMNSLKPEDTAVYYCAAEVDYSYWPEYARKYYYWGQGTQVTVSS,low polyreactivity
27,QVQLVESGGGLVQAGGSLRLSCAASGIIIDRYAMGWYRQAPGKERELVAAISWSGGRTYYADSVKGRFTISRDNAKNTVYLQMNSLKPEDTAVYYCAAKPSVDLDYWGQGTQVTVSS,high polyreactivity
28,QVQLVESGGGLVQAGGSLRLSCAASGIIIRYYGMGWYRQAPGKERELVARIRWTGGSTYYADSVKGRFTISRDNAKNTVYLQMNSLKPEDTAVYYCAAAWWSYKFNRDFDYWGQGTQVTVSS,low polyreactivity
29,QVQLVESGGGLVQAGGSLRLSCAASGIIISINAMGWYRQAPGKERELVAAISRSGGSTNYADSVKGRFTISRDNAKNTVYLQMNSLKPVDTAVDYCATVHRYSVWSHNYWGQGTQVTVSS,high polyreactivity
30,QVQLVESGGGLVQAGGSLRLSCAASGIIISYYAMGWYRQAPGTERELVAAINWNGDSTHYADSVKGRFTISRDNAKNTVYLKMNSLKPEDTAVYYCAAGYTPDTRCHYGTHDMDYWGQGTQVTVSS,low polyreactivity
